Test results published in publication doi:10.1101/2020.03.10.985002.

What was measured:
HY5 [1] = biological target: T1, HY5 (UniProt O24646 1-168); test: competition
T1 sequence: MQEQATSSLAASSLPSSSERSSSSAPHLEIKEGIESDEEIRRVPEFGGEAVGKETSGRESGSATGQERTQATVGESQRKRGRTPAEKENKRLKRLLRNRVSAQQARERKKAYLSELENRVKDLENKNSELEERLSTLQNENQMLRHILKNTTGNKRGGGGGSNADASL

HY5 [2] = biological target: T1, HY5; test: EMSA

B1: G-box cold competitor (GbH5) (dsDNA)
DNA 1: GTTCTAGTGTATCAGACACGTGTCGACAAACTGGTGG
DNA 2: CCACCAGTTTGTCGACACGTGTCTGATACACTAGAA
binding result (HY5 [1]): binds

B2: PAP8 promoter box probe (oP8Box) (dsDNA)
DNA 1: GGATACCAAAAATGACGCTCTTAATTATTTCC
DNA 2: GGAAATAATTAAGAGCGTCATTTTTGGTATCC
binding result (HY5 [2]): binds
